Experimental data reported in US20240016917A1 (ACADEMIA SINICA, published 2024).

Biological target: SARS-CoV-2 S protein S1 (SARS-CoV-2, UniProt P0DTC2 16-685)

B1: monoclonal antibody (mAb) m31A7 (antibody, V domains shown)
VH: EVQLQQSGPEMVKPGASVKISCKTSGYTFTEYTIYWVKQSHGKSLEWLGGINPNIGDTTYNQKFKGKATLTVDTSSSTAYMELRSLTSEDSAVYYCAREVYNYSFAYWGQGTLVTVSA
VL: DIVMSQSPSSLAVSVGEKVTMSCKSSQSLLYSSNQKNYLAWYQQKLGQTPKLLIYWASSRESGVPDRFTGSGSGTDFTLTISSVRAEDLAVYYCQQYYRYPLTFGVGTKLELKR
B1 was tested, and the EC50 was 0.0235 nM.
